Laboratory results taken from patent US20090299044A1 (priority 2006, published 2009).
Entries after “also recorded” stand apart in the source; their conditions may differ. Like-named read-outs stand apart in the source and are kept apart here. Bridge positions count the residues as written; N and C are the ends. Ends that are not written are not given here. Peptide text beside a SMILES is read from it.

How the values were obtained:
human Kv1.1 [1] = molecular target: T1, human Kv1.1 (Homo sapiens, UniProt Q09470); assay: cell-based; design: expressed in transfected cells; host or cells: HEK293
T1 sequence (Q09470 whole entry): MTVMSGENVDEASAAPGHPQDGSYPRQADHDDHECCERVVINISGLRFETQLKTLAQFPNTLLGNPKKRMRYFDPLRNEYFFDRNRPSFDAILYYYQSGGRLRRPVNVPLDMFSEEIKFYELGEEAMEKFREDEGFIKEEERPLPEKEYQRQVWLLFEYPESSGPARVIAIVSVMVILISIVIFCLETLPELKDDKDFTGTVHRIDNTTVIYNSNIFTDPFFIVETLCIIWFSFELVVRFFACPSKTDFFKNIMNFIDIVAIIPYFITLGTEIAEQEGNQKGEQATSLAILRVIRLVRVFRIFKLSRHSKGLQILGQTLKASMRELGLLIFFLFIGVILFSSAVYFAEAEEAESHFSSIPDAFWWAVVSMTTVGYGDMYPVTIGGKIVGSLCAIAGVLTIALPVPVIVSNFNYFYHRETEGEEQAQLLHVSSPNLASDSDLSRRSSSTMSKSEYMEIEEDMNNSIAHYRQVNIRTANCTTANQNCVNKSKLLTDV

[2] = test system: IL-2 production, human whole blood; format: cell-based
[3] = test system: IFN-g production, human whole blood; format: cell-based
human Kv1.1 (HEK293) = molecular target: T2, human Kv1.1 (HEK293) (Homo sapiens, UniProt Q09470); assay: cell-based
T2 construct: expressed in transfected cells; host or cells: HEK293
T2 sequence (Q09470 whole entry): as above

human Kv1.3 channel [4] = molecular target: T3, human Kv1.3 channel (Homo sapiens, UniProt P22001); assay: cell-based; format: cell-based
T3 sequence (P22001 whole entry): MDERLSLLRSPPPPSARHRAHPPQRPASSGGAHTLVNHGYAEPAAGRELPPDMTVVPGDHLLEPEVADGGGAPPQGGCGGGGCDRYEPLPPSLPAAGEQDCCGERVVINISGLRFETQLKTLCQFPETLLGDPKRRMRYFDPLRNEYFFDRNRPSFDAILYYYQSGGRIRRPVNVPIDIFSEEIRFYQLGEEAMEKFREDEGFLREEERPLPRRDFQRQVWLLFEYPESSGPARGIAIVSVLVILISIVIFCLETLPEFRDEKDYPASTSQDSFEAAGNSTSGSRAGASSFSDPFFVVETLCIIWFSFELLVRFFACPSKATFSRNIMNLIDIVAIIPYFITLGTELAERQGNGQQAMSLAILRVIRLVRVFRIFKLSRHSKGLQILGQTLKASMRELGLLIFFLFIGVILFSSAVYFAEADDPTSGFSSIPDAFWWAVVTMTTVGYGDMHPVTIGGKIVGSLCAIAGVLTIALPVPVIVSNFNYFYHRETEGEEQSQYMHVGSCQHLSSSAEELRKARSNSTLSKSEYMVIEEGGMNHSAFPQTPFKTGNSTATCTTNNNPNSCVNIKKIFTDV

human Kv1.3 (CHO) = molecular target: T4, human Kv1.3 (CHO) (Homo sapiens, UniProt P22001); assay: cell-based
T4 construct: expressed in transfected cells; host or cells: CHO
T4 sequence (P22001 whole entry): as above

human Kv1.3 channel [5] = molecular target: T3, human Kv1.3 channel; assay: cell-based or functional assay
human Kv1.1 [6] = molecular target: T1, human Kv1.1; assay: cell-based or functional assay
[7] = test system: CD40L on CD4+ T cells, human whole blood; format: cell-based
[8] = test system: IL-2R on CD4+ T cells, human whole blood; format: cell-based
[9] = molecular target: human Kv1.3 voltage-gated potassium channel (human) (UniProt P22001); assay: cell-based or functional assay
Sequence of human Kv1.3 voltage-gated potassium channel (human) (P22001 whole entry): as above

CC[C@H](C)[C@@H]1NC(=O)[C@H](CCCCN)NC(=O)[C@@H](NC(=O)[C@H](CCCCN)NC(=O)[C@@H](NC(=O)[C@H](CC(N)=O)NC(=O)[C@@H](NC(=O)[C@@H](NC(=O)[C@@H](NC(=O)CN)C(C)C)[C@@H](C)CC)[C@@H](C)CC)C(C)C)CSSC[C@@H]2NC(=O)[C@H](CCCCN)NC(=O)CNC(=O)[C@H](Cc3ccccc3)NC(=O)[C@H](CCCNC(=N)N)NC(=O)[C@H](CCSC)NC(=O)CNC(=O)[C@H](C)NC(=O)[C@H](CCCCN)NC(=O)[C@H](CCCCN)NC(=O)[C@@H]3CSSC[C@@H](C(=O)N[C@H](C(=O)N4CCC[C@H]4C(=O)N[C@@H](CCCCN)C(=O)O)[C@@H](C)O)NC(=O)[C@H](Cc4c[nH]cn4)NC(=O)[C@H](CSSC[C@H](NC(=O)[C@H](CCC(N)=O)NC(=O)[C@H](CCCNC(=N)N)NC(=O)[C@H](CO)NC1=O)C(=O)N[C@@H](CC(C)C)C(=O)N[C@@H](CCC(=O)O)C(=O)N1CCC[C@H]1C(=O)N3)NC(=O)[C@H](CCCCN)NC(=O)CNC(=O)[C@H](CC(N)=O)NC(=O)[C@H](C)NC2=O [OSK1[Ala-29]] (H-GVIINVKCKISRQCLEPCKKAGMRFGKCANGKCHCTPK-OH; disulfide 8-28, 14-33, 18-35)
IC50 (human Kv1.1 [1]; IC50 on HEK/Kv1.1): 2700 pM | potency relative to cyclosporin A in blocking the cytokine response in human whole blood (in words) [2]: several orders of magnitude more potent

CC[C@H](C)[C@@H]1NC(=O)[C@H](CCCCN)NC(=O)[C@@H](NC(=O)[C@H](CCCCN)NC(=O)[C@@H](NC(=O)[C@H](CC(N)=O)NC(=O)[C@@H](NC(=O)[C@@H](NC(=O)[C@@H](NC(=O)CN)C(C)C)[C@@H](C)CC)[C@@H](C)CC)C(C)C)CSSC[C@@H]2NC(=O)[C@H](CCCCN)NC(=O)CNC(=O)[C@H](Cc3ccccc3)NC(=O)[C@H](CCCNC(=N)N)NC(=O)[C@H](CCSC)NC(=O)CNC(=O)[C@H](C)NC(=O)[C@H](CCCCN)NC(=O)[C@H](CCCCN)NC(=O)[C@@H]3CSSC[C@@H](C(=O)N[C@H](C(=O)N4CCC[C@H]4C(=O)N[C@@H](CCCCN)C(=O)O)[C@@H](C)O)NC(=O)[C@H](Cc4c[nH]cn4)NC(=O)[C@H](CSSC[C@H](NC(=O)[C@H](CCC(N)=O)NC(=O)[C@H](CCCNC(=N)N)NC(=O)[C@H](CCC(=O)O)NC1=O)C(=O)N[C@@H](CC(C)C)C(=O)N[C@@H](CCC(=O)O)C(=O)N1CCC[C@H]1C(=O)N3)NC(=O)[C@H](CCCCN)NC(=O)CNC(=O)[C@H](CC(N)=O)NC(=O)[C@H](CCSC)NC2=O [S11E] (H-GVIINVKCKIERQCLEPCKKAGMRFGKCMNGKCHCTPK-OH; disulfide 8-28, 14-33, 18-35)
IC50 ([3]; read-out: Analogue Activity (IC50, pM) WB/IFNg): 16900 pM | IC50 ([2]; read-out: Analogue Activity (IC50, pM) WB/IL-2): 39900 pM

CC[C@H](C)[C@@H]1NC(=O)[C@H](CCCCN)NC(=O)[C@@H](NC(=O)[C@H](CCCCN)NC(=O)[C@@H](NC(=O)[C@H](CC(N)=O)NC(=O)[C@@H](NC(=O)[C@@H](NC(=O)[C@@H](NC(=O)CN)C(C)C)[C@@H](C)CC)[C@@H](C)CC)C(C)C)CSSC[C@@H]2NC(=O)[C@H](CCCCN)NC(=O)CNC(=O)[C@H](Cc3ccccc3)NC(=O)[C@H](CCCNC(=N)N)NC(=O)[C@H](CCSC)NC(=O)CNC(=O)[C@H](C)NC(=O)[C@H](CCCCN)NC(=O)[C@H](CCCCN)NC(=O)[C@@H]3CSSC[C@@H](C(=O)N[C@@H](CCC(=O)O)C(=O)N4CCC[C@H]4C(=O)N[C@@H](CCCCN)C(=O)O)NC(=O)[C@H](Cc4c[nH]cn4)NC(=O)[C@H](CSSC[C@H](NC(=O)[C@H](CCC(N)=O)NC(=O)[C@H](CCCNC(=N)N)NC(=O)[C@H](CO)NC1=O)C(=O)N[C@@H](CC(C)C)C(=O)N[C@@H](CCC(=O)O)C(=O)N1CCC[C@H]1C(=O)N3)NC(=O)[C@H](CCCCN)NC(=O)CNC(=O)[C@H](CC(N)=O)NC(=O)[C@H](CCSC)NC2=O [T36E] (H-GVIINVKCKISRQCLEPCKKAGMRFGKCMNGKCHCEPK-OH; disulfide 8-28, 14-33, 18-35)
IC50 (human Kv1.1 (HEK293)): > 3.33 nM | IC50 (human Kv1.1 [1]; Kv1.1 (IC50, pM)): 83900 pM | IC50 (human Kv1.3 channel [4]): 1.92 nM | IC50 (human Kv1.3 (CHO)): 0.161 nM

E. coli-derived Fc-L-OSK1 (Fc fusion)
Kv1.3 IC50 by WCVC (whole cell patch clamp, HEK293/Kv1.3 cells) (human Kv1.3 channel [5]): 3.2 nM

E. coli-derived Fc-L-ShK[1-35] (Fc fusion)
Kv1.3 IC50 by WCVC (whole cell patch clamp, HEK293/Kv1.3 cells) (human Kv1.3 channel [5]): 1.4 nM

E. coli-derived Fc-L-ShK[2-35] (Fc fusion)
Kv1.3 IC50 by IWQ (IonWorks planar patch clamp, CHO/Kv1.3 cells) (human Kv1.3 channel [5]): 2.8 nM | Kv1.3 IC50 by WCVC (whole cell patch clamp, HEK293/Kv1.3 cells) (human Kv1.3 channel [5]): 1.3 nM

E. coli-derived ShK[2-35]-L-Fc (Fc fusion)
Kv1.3 IC50 by IWQ (IonWorks planar patch clamp, CHO/Kv1.3 cells) (human Kv1.3 channel [5]): 4.9 nM

E. coli-derived Shk[1-35]-L-Fc (Fc fusion)
Kv1.3 IC50 by IWQ (IonWorks planar patch clamp, CHO/Kv1.3 cells) (human Kv1.3 channel [5]): 2.4 nM

Fc-L10-OSK1 (CHO-expressed) (Fc fusion)
hKv1.1: IC50 (whole cell patch clamp, block of K+ current) (human Kv1.1 [6]): 41.6 nM

Fc-L10-ShK[2-35]: human IgG1 Fc fused via 10 amino acid linker to ShK[2-35], CHO-derived peptibody
thapsigargin-induced IFN-g production in human whole blood (in words) [3]: suppressed; also recorded: blocked | thapsigargin-induced upregulation of CD40L on T cells in human whole blood (in words) [7]: blocked | thapsigargin-induced upregulation of the IL-2R on T cells in human whole blood (in words) [8]: suppressing activation of the IL-2R on CD4+ T cells; also recorded: blocked | block of human Kv1.3 current (in words) (human Kv1.3 channel [4]): potently blocks | thapsigargin-induced IL-2 production in human whole blood (in words) [2]: potently blocked IL-2 secretion in human whole blood; also recorded: suppressed

Fc-L25-ShK[2-35] (CHO-derived) (Fc fusion)
IC50 of current block, whole cell patch clamp on HEK293/Kv1.3 cells (human Kv1.3 channel [5]): 0.15 nM

IbTx: BKCa channel inhibitor iberiotoxin, Bachem (QFTDVDCSVSKECWSVCKDLFGVDRGKCMGKKCRCYQ; Definition of Artificial Sequence: Synthetic peptide) [reference compound]
thapsigargin-induced IFN-g production in human whole blood (in words) [3]: no significant activity | thapsigargin-induced upregulation of CD40L on T cells in human whole blood (in words) [7]: no significant activity | thapsigargin-induced upregulation of the IL-2R on T cells in human whole blood (in words) [8]: no significant activity | thapsigargin-induced IL-2 production in human whole blood (in words) [2]: no significant activity

OSK1 analogue E16K, K20D (peptide)
WB/IFNg (IC50, nM), human whole blood [9]: 1.32 nM | WB/IL-2 (IC50, nM), human whole blood [9]: 1.58 nM

SEQ ID No: 4989: OSK1 analog without beta strand 1 (des 1-7), Table 42 (CKISRQCLKPCKDAGMRFGKCMNGKCHC-NH2; ends and bridges not checked)
blockade of the whole blood cytokine response (IL-2 and IFNg), in words [2]: retain activity in blocking inflammation

Synthetic OSK1 toxin peptide
hKv1.1: IC50 (whole cell patch clamp, block of K+ current) (human Kv1.1 [6]): 0.16 nM | hKv1.3: IC50 (whole cell patch clamp, block of K+ current) (human Kv1.3 channel [5]): 0.039 nM

B1: FcLoop-L2-OsK1-L2: OsK1 inserted into the human IgG1 Fc-loop between Leu139 and Thr140 with 2-Gly linkers (protein)
chain: MDKTHTCPPCPAPELLGGPSVFLFPPKPKDTLMISRTPEVTCVVVDVSHEDPEVKFNWYVDGVEVHNAKTKPREEQYNSTYRVVSVLTVLHQDWLNGKEYKCKVSNKALPAPIEKTISKAKGQPREPQVYTLPPSRDELGGGVIINVKCKISRQCLEPCKKAGMRFGKCMNGKCHCTPKGGTKNQVSLTCLVKGFYPSDIAVEWESNGQPENNYKTTPPVLDSDGSFFLYSKLTVDKSRWQQGNVFSCSVMHEALHNHYTQKSLSLSPGK
modifications: Definition of Artificial Sequence: Synthetic protein
blockade of the whole blood cytokine response (IL-2 and IFNg), in words [2]: potent blockade

B2: FcLoop-L2-ShK-L2: ShK inserted into the human IgG1 Fc-loop with 2-Gly linkers (protein)
chain: MDKTHTCPPCPAPELLGGPSVFLFPPKPKDTLMISRTPEVTCVVVDVSHEDPEVKFNWYVDGVEVHNAKTKPREEQYNSTYRVVSVLTVLHQDWLNGKEYKCKVSNKALPAPIEKTISKAKGQPREPQVYTLPPSRDELGGRSCIDTIPKSRCTAFQCKHSMKYRLSFCRKTCGTCGGTKNQVSLTCLVKGFYPSDIAVEWESNGQPENNYKTTPPVLDSDGSFFLYSKLTVDKSRWQQGNVFSCSVMHEALHNHYTQKSLSLSPGK
modifications: Definition of Artificial Sequence: Synthetic protein
blockade of the whole blood cytokine response (IL-2 and IFNg), in words [2]: potent blockade

B3: MGGHHHHHHGGGPSVFLFPPKPKDTLMISRTPEVTCVVVDVSHEDPEVKFNWYVDGVEVHNAKTKPREEQYNSTYRVVSVLTVLHQDWLNGKEYKCKVSNKALPAPIEKTISGGGGSGGGGSGVIINVKCKISRQCLEPCKKAGMRFGKCMNGKCHCTPK (protein)
chain: MGGHHHHHHGGGPSVFLFPPKPKDTLMISRTPEVTCVVVDVSHEDPEVKFNWYVDGVEVHNAKTKPREEQYNSTYRVVSVLTVLHQDWLNGKEYKCKVSNKALPAPIEKTISGGGGSGGGGSGVIINVKCKISRQCLEPCKKAGMRFGKCMNGKCHCTPK
IC50 ([3]; read-out: WB/IFNg (IC50)): 55200 pM | blockade of the whole blood cytokine response (IL-2 and IFNg), in words [2]: active in blocking inflammation; also recorded: modest blockade | IC50 ([2]; read-out: WB/IL-2 (IC50)): 38500 pM

B4: PEGylated CH2-OSK1: CH2-OSK1 fusion protein mono-PEGylated with 20 kD methoxy-PEG-aldehyde (conjugate)
chain: MGGHHHHHHGGGPSVFLFPPKPKDTLMISRTPEVTCVVVDVSHEDPEVKFNWYVDGVEVHNAKTKPREEQYNSTYRVVSVLTVLHQDWLNGKEYKCKVSNKALPAPIEKTISGGGGSGGGGSGVIINVKCKISRQCLEPCKKAGMRFGKCMNGKCHCTPK
blockade of the whole blood cytokine response (IL-2 and IFNg), in words [2]: active in blocking inflammation; also recorded: modest blockade
